{"source": "paper PMC12445682", "about": "(Nucleic Acids Research, 2025)", "proteins": {"B1": {"name": "P2–OLD H332A (ATPase domain mutant), His-MBP-bdSUMO fusion (enzyme, phage P2, UniProt P13520 1-586, looked up)", "chain": "MTVRLASVSISNFRSCKSTSAILRPFTALVGYNNAGKSNIILAIKWLLDGSLISESDVYDPTHPVSVEGVIQGITDDTLSLLTEENQQKIAPFIIDGTLTFARRQEFNKETGKAKKSLDVYDGTTWKKNPGGIDGAISNIFPEPIHIPAMSDAVEDSTKCKNTTTIGKILSAIVSEIKQEHEEKFSKNISEIGKYLSHNGENRLESLNKIDSGVNKKVNQFFPDVSVKLHFPTPTLDEIFKSGTLKVFESREDEPVMRDISRFGHGTQRSIQMALIQYLAEIKKENSESKKSNTLIFIDEPELYLHPSAINSVRESLVTLSESGYQVIISTASASMLSAKHAANAIQVCKDSNGTIARKTISEKIEELYKSSSPQLHSAFTLSNSSYLLFSEEVLLVEGKTETNVLYALYKKINGHELNPSKICIVAVDGKGSLFKMSQIINAIGIKTRILADCDFLSNILLTEHKDLLSTECDNLLTALIESINSGELSLNTKVTTFESFKSISSKDFIKICNHEKTQKHIHEIHQKLKDNGIYIWKSGDIEAVYGFGKKQTEWDSLLDCLCDESKDVRAVIKKYDEMEDFIKWI"}, "B2": {"name": "P2–OLD E402A (Toprim domain mutant), His-MBP-bdSUMO fusion (enzyme, phage P2, UniProt P13520 1-586, looked up)", "chain": "B1 chain with A332H, E402A"}, "B3": {"name": "P2–OLD H332A/E402A (ATPase and Toprim double mutant), His-MBP-bdSUMO fusion (enzyme, phage P2, UniProt P13520 1-586, looked up)", "chain": "B1 chain with E402A"}}, "note": "Substitutions are numbered along the chain they refer to. Names and notes keep the numbering of the source.", "data": [{"target": "the molecule itself", "assay": "SEC", "values": [{"protein": "B1", "binding result": "binds"}, {"protein": "B2", "binding result": "binds"}, {"protein": "B3", "binding result": "binds"}]}]}
